Source: publication PMC12242769

What was measured:
Assay in all cases: EMSA
[1] = test system: TbLa LaMΔ (Trypanosoma brucei); conditions: native tRNA modifications except queuosine (from TbTGT2Δ cells); 50 mM HEPES pH 7.5, 1 mM MgCl2, 5 mM KCl; on ice 30 min; ~0.6 nM tRNA, 10 µl; 6% native PAGE
[2] = test system: TbLa (wild type) (Trypanosoma brucei); conditions: 1 mM Mg2+; apparent Kd from Hill fit; native tRNA modifications except queuosine (from TbTGT2Δ cells); 50 mM HEPES pH 7.5, 1 mM MgCl2, 5 mM KCl; on ice 30 min; ~0.6 nM tRNA, 10 µl; 6% native PAGE
[3] = test system: TbLa RRM1Δ (Trypanosoma brucei); conditions: native tRNA modifications except queuosine (from TbTGT2Δ cells); 50 mM HEPES pH 7.5, 1 mM MgCl2, 5 mM KCl; on ice 30 min; ~0.6 nM tRNA, 10 µl; 6% native PAGE

Substance: native mature tRNATyr lacking Q34
- Kd [1]: 855 nM
- Kd [2]: 216 nM
- Kd [3]: 446 nM
